Literature values as cited in patent US5608039A, “Single chain B3 antibody fusion proteins and their uses” (The United States of America as represented by the …, priority 1994, dated 1997).

Details: in vivo

Substance: PE
- toxicity: highly toxic compounds that typically bring about death through liver toxicity
